Experimental data reported in a protein production outcome set (Wang et al. 2014).

assay: label from the status in PepcDB records

Sequence | protein production
STMSGYLYRSKGSKKPWKHLWFVIKNKVLYTYAASEDVAALESQPLLGFTVTLVKDENSESKVFQLLHKGMVFYVFKADDAHSTQRWIDAFQEGTV | not failed
STQVSQATSQPINFQVQKDGSSEKSHMDDYMQHPGKVIKQNNKYYFQTVLNNASFWKEYKFYNANNQELATTVVNDNKKADTRTINVAVEPGYKSLTTKVHIVVPQINYNHRYTTHLEFEKAIPTLADAAK | not failed
STRFPGVAIYLVEPRMGRSRRAFLTGLARSKGFRVLDACSSEATHVVMEETSAEEAVSWQERRMAAAPPGCTPPALLDISWLTESLGAGQPVPVECRHRLEVAGPRKGPLSPAWMPAYAC | not failed
STRRVSVRDKLLVKEVAELEANLPCTCKVHFPDPNKLHCFQLTVTPDEGYYQGGKFQFETEVPDAYNMVPPKVKCLTKIWHPNITETGEICLSLLREHSIDGTGWAPTRTLKDVVWGLNSLFTDLLNFDDPLNIEAAEHHLRDKEDFRNKVDDYIKRYAR | not failed
SVDVEFQKAVEDILRKNIKQGKQYAGSDLFDRAFVVAMDPYSGEVLALAGQKLNDKGEFDDYSLGTFTTAYAMGSAVKGSTILGGIMDGAISNKTVFTDQPIALKGTKPKSSWFNRTGAGNRPLDPVGALEISSNSYMYQVAMKMGGAKYVPNGPLRAPLSTFDDMRYYYNQFGLGVKTGIDLPGEQVGYKGDDQTIGKILDFAIGQYDSYTPLQMAQYVSTIANGGSRIAPSMVKEIRNPSTNGDSVGTLATANEPKVLNKIGVSDNDIKTVQKGFYEVTHGSTGTARTVFTSSDYDVAGKTGTADAFYDGPKEGNKMASVWNTTFVGYAPVKKPEIAISVVVPWIYRPYGTDQKTNMKISKEVFDKYFELKKERAESNKDASKVEQPINNKEAAAKAQSEQTEN | failed
TAYIIVGLTPKDAEKLQQYGARVASTLAKYSGEVLVKGSVEQLHGKFEHKAQVILEFPSREDAYNWYHSEEYQALISTRDLGMDSQFQLIG | not failed
TEDTFWKDETDFNLALTSCYTPLKNALNGGYYGTRGVMLRIARADEVDFRNDISDVYTVNRFTNSNTNSLTQGMFYQFYNALYRTNSIMQKLEEKKEQFSTDFQNSVKGECLFIRGFYLFQLAKEFKDAPLRLTASQSPSTFPLAKSSQADIWAQAKEDLKTAASLLPITNKIGKPTQGAAYAALGKIYVYEENWQEAINVLEPLTQNPYTYKLVEDFNWNFDDTHENNAESIFELLIEDVGGTDLWGDGENINSTQSNTRPKEYAAAEVGGWYEANPTQQIMDIFWKEKDKDGNFDYRARCSVAWDYEGCTYYQRPFREVFAQDKWKTYWILKYQNWKTQKDEPAPPKSFINERAIRYADVLLMLAEAYMNKGALDTSIGYINQIRRRANLNDYSGPITKEGVFEDLVHQRAIEFFVEGERFYDLRRWGLLEQTLKTCDDTRYKNYQTGKSDNINKFNYFPIPAKELDTNPLCTPSEGW | not failed
TEERLKEIEAKYDEIAKDWPKKVKHVLHEEHELELTRVQVYTCDKCEEEGTIWSYHCDECDFDLHAKCALNEDTKE | not failed
TEQGLQKVLQRLVQTMQRDALVRQTTNQLRESLQVDRVVLYYFYWQWHGQVTFEALSSEEFSILGSTGADECFNDEYAALYLAGRTKAIADIESEPITTCHRDFLRTLQVRANLVVPVLVPKGLWGLLVAHHCQGTHDWKESDIELMQAGAKTLA | failed
TFEEDDNMERAAVTGIAFDKNQARINVRGVPDKPGVAYQILGAVADANIEVDMIIQNVGSEGTTDFSFTVPRGDYKQTLEILSERQDSIGAASIDGDDTVCKVSAVGLGMRSHVGVAAKIFRTLAEEGINIQMISTSEIKVSVLIDEKYMELATRVLHKAFNLG | not failed
TFGEKLLNAASTRGRLCVGIDPHESLLTSWGLPVNVDGLAEFSRACVEAFADTVALVKPQVAFYERFGSAGFAILEETIQTLRERGCLVVSDAKRGDIGSTMAGYASAWLDPASPLSSDAVTVSPYLGFHSLDPVFELAEQHGRGVFVLAATSNPEARELQDQQNADGVSISQQIVDQAAALNAPYMAQGKAGNIGVVIGATLSKPPRLSTLGGAILMPGVGAQGGTASDVDEIAGDMAHLAFPNVSRSILATGPDIAEMKNSVAKNAADFPGFP | not failed
TGQGWMLNLRREKFQDPKVREALNLMFNFEWSNQTLFYGLYTRVDSFWENSYLEAEGAPSEAEAALLKPLVDEGLLPASILTEPPVSPPVSGERQLDRRNLRAASKLLDEAGWTVGSDGMRRNAKGEVLRVEFLNDSQTFDRVISPFVENLRALGVDALMTRVDNAQMESRTRPPSYDFDITTGNARTNYISGAELKQYYGSETADISAFNIMGLKDKAVDRMIEVVLAAKTSEELEVATKALDRVLRLQRFWVPQWYKA | failed
THVVCSDSGLEVLYQSCDPLQDFGFSVEKCSKQLKSNINIRFGIILREDIKELFLDLALMSQGSSVLNFSYPICEAALPKFSFCGRRKGEQIYYAGPVNNPEFTIPQGEYQVLLELYTEKRSTVACANATIMCS | not failed
TIAFIVNKNLLHGSEIPKSWADLKTGKYKVSIGDVSTAAQAANGVLAASFAMKGDESNIEPGLALFTDLAKQKRLSLANPTIQTIEKGEIEVGVVWDFNGLSYRTKMAKPDDYVVLIPSDGSVISGYTTIINKYAKHPNAAKLAREYTFSDAGQ | failed
TIDLRMQQYAEEAMVKQMKEVLQPIFDKEKRGRSYAPFSRDITSDEQRSILLRAMKQTDRWREMKKAGISESEIRASFNKKRKMQVWNWRGTIDTVMSPLDSIKYLKGILRTGFMAMNPHNGHIKAYVGGINFRNFQYDMVSQGRRQVGSTIKPFLYSLSMLEGISPCDEMLHVSQTLFTESGKAWTPKNTGARRTGEMVSIKWGLQNSSNWVTAYLMGRTSPYTFVRLLRSYGLSGYLEPSLSICLGTPDVSVQEMVSAYTTFVNKGIRVNPLPITRIEDQYGNVVAQFSPNMVEVLPPDAAYKMLYMLKSVVDGGTGSRLRYRYGFKLDMGGKTGTTQNNSDGWFVGFTPSLVAGCWVGGEDRSVHFDSMSNGQGAASALPIFAEFLKRVYADPKLGYTTE | failed
TIDRGIQTQIESLVERWNSEFKRSDIRNLAILVIDIRTNQAIAYCGNVHFDKEQSGNQVDVIRSPRSTGSILKPFLYYAMLQEGEILPNTLLPDIPVNINGFTPQNFNLQFEGAVPASEAIARSLNIPSVTMLQRYGVPKFHSFLKQIGLTTLNRPSSHYGLSLILGGAEATLWDITSAYANMGRSLNRLPQFPCTLLLSDSTSVHRPSFQSGAVWQTFDAIKEVNRPEEIDWRTIPSMQTIAWKTGTSYGFRDAWAVGVTPKYAVGVWVGNATGEGKPGLVGARTAGPVLFDVFNLL | failed
TKDFTWQTDWTFSLNNEKIKELAGGATYDSTGPWMVGEPLNSFYDFQYDRIWQNTQEDNHLMDVYRSLGLTFLPGQYKIVDQ | failed
TKEHRAAARKIAGESFVLLKNEGLSPTLAPVLPLSPTGTIAVIGPLANTRSNMPGTWSVAAVLDKSPSLVEGLTEWVGNQGKILYAKGSNLIGDAAYEERATMFGRSLNRDNRTDQQLLDEALKIASQADVIVAALGESSEMSGESSSRTNLNLPDVQHTLLEALLKTGKPVVLVLFTGRPLVLNWEQEHVPAILNVWFGGSEAGPAIGDVLFGAVNPGGKLTMTFPKSVGQIPLYYAHKNTGRPLKEGKWFEKFRSNYLDVDNDALYPFGYGLSYTTF | failed
TKKDVHDLFLNHVNSNAVKTRKMMGEYIIYYDSVVIGGLYDNRLLVKATKSVRHQLQDNTLVSPYPGAKEMILIPDITEAINLTNLFELIKNDLKN | failed
TLEQLPSAQSTLVSLDANNGALRALVGGFSFTANKFNRATQARRQPGSSFKPFVYSAALEKGFNPASIVPDAPVIFRDRRGHTWSPQNDDGKFQGPMRIRDALVQSRNLVSVRLLDAIGIDFARNYITQFGFEENEIPPNLSMSLGTASLTPLSIARGYAVFANGGFRIDPWLIDEIHDREHKLIFKNNPKVACSSCTSANTNVTQSTSHLVDGFNFGAPTKTEPSKPVKNNNEPTQTIPSPDPNTPMAPRAIDERVVFQLVSMMRDVVLRGTATAARSLNRQDIAGKTGSTNEHRDAWFSGFGGPYVTTVWVGRDDFQSLGYREYGGKAALPIWIEYMRTALKDKPIARN | failed
TLEWPELLQQCEQLNKPNQINLNPALLWQCQGVGSAPPASNLRESRIKAVLAINPVTNPIFGPDGMKNLAVPTLIVAGSKDIFAPPVPEQIIPFSLIEGVNKYLLLVQNGTHLSFLEDTDNLPEKIVGPGQDLAYTYMKSLGLAFFDLYLQQDSSFKPYLTDSVVQQMSQEPLPLQLVPSL | failed
